Laboratory results from IntAct's records for PubMed 22770219.

B1: Cadherin-1 (Mus musculus), P09803 (parent)
chain: MGARCRSFSALLLLLQVSSWLCQELEPESCSPGFSSEVYTFPVPERHLERGHVLGRVRFEGCTGRPRTAFFSEDSRFKVATDGTITVKRHLKLHKLETSFLVRARDSSHRELSTKVTLKSMGHHHHRHHHRDPASESNPELLMFPSVYPGLRRQKRDWVIPPISCPENEKGEFPKNLVQIKSNRDKETKVFYSITGQGADKPPVGVFIIERETGWLKVTQPLDREAIAKYILYSHAVSSNGEAVEDPMEIVITVTDQNDNRPEFTQEVFEGSVAEGAVPGTSVMKVSATDADDDVNTYNAAIAYTIVSQDPELPHKNMFTVNRDTGVISVLTSGLDRESYPTYTLVVQAADLQGEGLSTTAKAVITVKDINDNAPVFNPSTYQGQVPENEVNARIATLKVTDDDAPNTPAWKAVYTVVNDPDQQFVVVTDPTTNDGILKTAKGLDFEAKQQYILHVRVENEEPFEGSLVPSTATVTVDVVDVNEAPIFMPAERRVEVPEDFGVGQEITSYTAREPDTFMDQKITYRIWRDTANWLEINPETGAIFTRAEMDREDAEHVKNSTYVALIIATDDGSPIATGTGTLLLVLLDVNDNAPIPEPRNMQFCQRNPQPHIITILDPDLPPNTSPFTAELTHGASVNWTIEYNDAAQESLILQPRKDLEIGEYKIHLKLADNQNKDQVTTLDVHVCDCEGTVNNCMKAGIVAAGLQVPAILGILGGILALLILILLLLLFLRRRTVVKEPLLPPDDDTRDNVYYYDEEGGGEEDQDFDLSQLHRGLDARPEVTRNDVAPTLMSVPQYRPRPANPDEIGNFIDENLKAADSDPTAPPYDSLLVFDYEGSGSEAASLSSLNSSESDQDQDYDYLNEWGNRFKKLADMYGGGEDD

Variants of: B1
Conditions: with skp2_human SKP2, Q13309
Chain of skp2_human SKP2, Q13309 (Q13309 whole entry): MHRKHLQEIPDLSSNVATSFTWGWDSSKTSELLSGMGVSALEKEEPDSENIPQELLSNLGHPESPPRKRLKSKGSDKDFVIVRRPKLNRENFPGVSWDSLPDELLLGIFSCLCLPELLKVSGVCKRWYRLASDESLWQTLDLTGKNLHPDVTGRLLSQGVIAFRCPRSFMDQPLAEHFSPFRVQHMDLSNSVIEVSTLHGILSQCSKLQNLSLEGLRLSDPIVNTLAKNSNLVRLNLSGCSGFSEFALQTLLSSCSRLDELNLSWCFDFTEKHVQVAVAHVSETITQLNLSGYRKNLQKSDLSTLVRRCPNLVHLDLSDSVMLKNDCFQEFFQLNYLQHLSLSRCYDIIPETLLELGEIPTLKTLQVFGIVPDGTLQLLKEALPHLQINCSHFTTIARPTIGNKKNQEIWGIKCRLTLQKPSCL

| Variant | effect of a mutation on the interaction |
| --- | --- |
| S840A;S842A;S846A;S849A;S852A;S855A | decreasing interaction strength |
